Measurements: article PMC11558545, “Mechanistic Insights into the Function of 14-3-3 Proteins as Negative Regulators of Brassinosteroid Signaling in Arabidopsis” (Plant and Cell Physiology, 2024)

Assays:
14-3-3κ = 14-3-3κ (UniProt P48348); assay: isothermal titration calorimetry
[1] = biological target: Arabidopsis 14-3-3 isoform kappa (At14-3-3-κ^1−248) (Arabidopsis thaliana) (UniProt P48348); assay: ITC; Nano ITC, 25°C, 25 mM Hepes pH 7.0, 50 mM KCl; 600 μM peptide or phosphopeptide injected into 50 μM 14-3-3 protein in the cell, 25 injections
[2] = biological target: biotinylated 14-3-3 ω dimer (Arabidopsis thaliana) (UniProt Q01525); assay: grating-coupled interferometry (GCI); Creoptix WAVE; biotinylated 14-3-3 ω dimer captured on a streptavidin-coated 4PCH chip (~500 pg/mm^2); peptide as analyte, 2-fold dilution series from 10 µM; 25°C; 20 mM Hepes, 150 mM NaCl; 1-to-1 (2:2) binding model
Sequence of biotinylated 14-3-3 ω dimer (Arabidopsis thaliana) (Q01525 whole entry): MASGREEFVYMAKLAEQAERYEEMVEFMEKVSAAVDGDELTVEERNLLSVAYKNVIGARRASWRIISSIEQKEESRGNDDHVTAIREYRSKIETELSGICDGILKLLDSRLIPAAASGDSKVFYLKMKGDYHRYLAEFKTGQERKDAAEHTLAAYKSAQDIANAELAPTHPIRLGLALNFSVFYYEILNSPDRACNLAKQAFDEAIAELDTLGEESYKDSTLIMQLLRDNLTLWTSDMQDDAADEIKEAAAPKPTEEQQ

Sequence of Arabidopsis 14-3-3 isoform kappa (At14-3-3-κ^1−248) (Arabidopsis thaliana) (P48348 whole entry, canonical isoform): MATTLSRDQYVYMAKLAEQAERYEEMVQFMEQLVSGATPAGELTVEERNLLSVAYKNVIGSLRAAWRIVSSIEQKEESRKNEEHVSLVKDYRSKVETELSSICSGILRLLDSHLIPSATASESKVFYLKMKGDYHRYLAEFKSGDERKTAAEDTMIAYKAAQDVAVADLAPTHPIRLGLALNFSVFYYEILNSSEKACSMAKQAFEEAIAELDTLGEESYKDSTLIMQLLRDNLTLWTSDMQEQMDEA
Sequence of 14-3-3κ (P48348 whole entry, looked up, canonical isoform): as the sequence (P48348 whole entry, canonical isoform) above

Substance | Kd [1] [µM] | stoichiometry N [1] | also measured
BKI1 265-272 (from UniProt Q9FMZ0) pS270 peptide |  |  | KD (14-3-3κ; reference: unphosphorylated BKI1 265-272 peptide, sites S270): gained; reference No binding was detected
BRI1 869-874 (from UniProt O22476) pT872 peptide |  |  | binding against the reference (14-3-3κ; reference: unphosphorylated BRI1 869-874 peptide, sites T872): gained
pBZR1^169−175 peptide | 0.5 | 1 | Kd [2]: 500 nM; complex lifetime [2]: 1 s

Now from value to substance, other results behind:

Kd [1] [µM] | stoichiometry N [1] | Substance | also measured
16 | 1 | pBKI1^265−272 peptide | 
 | 1 | pBRI1^869−874 peptide | 
